From paper PMC13132546 (2026)

What was measured:
[1] = molecular target: T1, DYRK1A (recombinant, N-terminally biotinylated) (UniProt Q13627 1-763, biotin on the N-terminus (sortase labelling with a synthetic biotin-LPETGG peptide onto the N-terminal glycine left after TEV cleavage)); experiment: BLI; steady-state response analysis
[2] = molecular target: T1, DYRK1A (recombinant, N-terminally …); experiment: BLI

Kd [1]: 3.3 µM
koff [2]: 0.04 s⁻¹
B1: FAM53C (recombinant) (natural protein)
chain: MITLITEQLQKQTLDELKCTRFSISLPLPDHADISNCGNSFQLVSEGASWRGLPHCSCAEFQDSLNFSYHPSGLSLHLRPPSRGNSPKEQPFSQVLRPEPPDPEKLPVPPAPPSKRHCRSLSVPVDLSRWQPVWRPAPSKLWTPIKHRGSGGGGGPQVPHQSPPKRVSSLRFLQAPSASSQCAPAHRPYSPPFFSLALAQDSSRPCAASPQSGSWESDAESLSPCPPQRRFSLSPSLGPQASRFLPSARSSPASSPELPWRPRGLRNLPRSRSQPCDLDARKTGVKRRHEEDPRRLRPSLDFDKMNQKPYSGGLCLQETAREGSSISPPWFMACSPPPLSASCSPTGGSSQVLSESEEEEEGAVRWGRQALSKRTLCQRDFGDLDLNLIEEN
